Assay results taken from patent US8318473B2, “Biofuel production” (Bio Architecture Lab, Inc., priority 2007, dated 2012).

B1: ADH3: alcohol dehydrogenase isolated from Agrobacterium tumefaciens C58, polypeptide SEQ ID NO: 74 (protein)
chain: MTKTMKAAVVRAFGKPLTIEEVAIPDPGPGEILINYKATGVCHTDLHAATGDWPVKPNPPFIPGHEGAGYVAKIGAGVTGIKEGDRAGTPWLYTACGCCIPCRTGWETLCPSQKNSGYSVNGSFAEYGLADPKFVGRLPDNLDFGPAAPVLCAGVTVYKGLKETEVRPGEWVVISGIGGLGHMAVQYAKAMGMHVVAADIFDDKLALAKKLGADVVVNGRAPDAVEQVQKATGGVHGALVTAVSPKAMEQAYGFLRSKGTMALVGLPPGFISIPVFDTVLKRITVRGSIVGTRQDLEEALTFAGEGKVAAHFSWDKLENINDIFHRMEEGKIDGRIVVDLAA
modifications: Agrobacterium tumefaciens C58
B2: 2ADH-2: secondary alcohol dehydrogenase isolated from Pseudomonas putida KT2440, SEQ ID NO: 112 (protein)
chain: MSMTFSGQVALVTGAGAGIGRATALAFAHEGMKVVVADLDPVGGEATVAQIHAAGGEALFIACDVTRDAEVRQLHERLMAAYGRLDYAFNNAGIEIEQHRLAEGSEAEFDAIMGVNVKGVWLCMKYQLPLLLAQGGGAIVNTASVAGLGAAPKMSIYSASKHAVIGLTKSAAIEYAKKGIRVNAVCPAVIDTDMFRRAYQADPRKAEFAAAMHPVGRIGKVEEIASAVLYLCSDGAAFTTGHCLTVDGGATAI
modifications: Pseudomonas putida KT2440
B3: ADH2: alcohol dehydrogenase isolated from Agrobacterium tumefaciens C58, polypeptide SEQ ID NO: 72 (protein)
chain: MAIARGYAATDASKPLTPFTFERREPNDDDVVIDIKYAGICHSDIHTVRNEWHNAVYPIVPGHEIAGVVRAVGSKVTRFKVGDHVGVGCFVDSCVGCATRDVDNEQYMPGLVQTYNSVERDGKSATQGGYSDHIVVREDYVLSIPDNLPLDASAPLLCAGITLYSPLQHWNAGPGKKVAIVGMGGLGHMGVKIGSAMGADITVLSQTLSKKEDGLKLGAKEYYATSDASTFEKLAGTFDLILCTVSAEIDWNAYLNLLKVNGTMVLLGVPEHAIPVHAFSVIPARRSLAGSMIGSIKETQEMLDFCGKHDIVSEIETIGIKDVNEAYERVLKSDVRYRFVIDMASLDA
modifications: Agrobacterium tumefaciens C58
B4: ADH9: alcohol dehydrogenase isolated from Agrobacterium tumefaciens C58, polypeptide SEQ ID NO: 86 (protein)
chain: MKAIVAHGAKDVRIEDRPEEKPGPGEVRLRLARGGICGSDLHYYNHGGFGAVRLREPMVLGHEVSAVIEELGEGVEGLKIGGLVAVSPSRPCRTCRFCQEGLHNQCLNMRFYGSAMPFPHIQGAFREILVADALQCVPADGLSAGEAAMAEPLAVTLHATRRAGDLLGKRVLVTGCGPIGILSILAARRAGAAEIVATDLSDFTLGKAREAGADRVINSKDEPDALAAYGANKGTFDILYECSGAAVALAGGITALRPRGIIVQLGLGGDMSLPMMAITAKELDLRGSFRFHEEFATGVELMRKGLIDVKPFITQTVDLADAISAFEFASDRSRAMKVQIAFS
modifications: Agrobacterium tumefaciens C58
B5: 2ADH-10: secondary alcohol dehydrogenase isolated from Pseudomonas putida KT2440, SEQ ID NO: 128 (protein)
chain: MSKTHLFDLDGKIAFVSGASRGIGEAIAHLLAQQGAHVIVSSRKLDGCQQVADAIIAAGGKATAVACHIGELEQIQQVFAGIREQFGRLDVLVNNAATNPQFCNVLDTDPGAFQKTVDVNIRGYFFMSVEAGKLMRENGGGSIINVASINGVSPGLFQGIYSVTKAAVINMTKVFAKECAPFGIRCNALLPGLTDTKFASALVKNEAILNAALQQIPLKRVADPKEMAGAVLYLASDASSYTTGTTLNVDGGFLS
modifications: Pseudomonas putida KT2440
B6: 2ADH-5: secondary alcohol dehydrogenase isolated from Pseudomonas putida KT2440, SEQ ID NO: 118 (protein)
chain: MSKQLTLEGKVALVQGGSRGIGAAIVRRLAREGAQVAFTYVSSAGPAEELAREITENGGKALALRADSADAAAVQLAVDDTEKALGRLDILVNNAGVLAVAPVTEFDLADFDHMLAVNVRSVFVASQAAARYMGQGGRIINIGSTNAERMPFAGGAPYAMSKSALVGLTRGMARDLGPQGITVNNVQPGPVDTDMNPASGEFAESLIPLMAIGRYGEPEEIASFVAYLAGPEAGYITGASLTVDGGFAA
modifications: Pseudomonas putida KT2440
B7: 2ADH-8: secondary alcohol dehydrogenase isolated from Pseudomonas putida KT2440, SEQ ID NO: 124 (protein)
chain: MSLQGKVALVTGASRGIGQAIALELGRQGATVIGTATSASGAERIAATLKEHGITGTGMELNVTSAESVEAVLAAIGEQFGAPAILVNNAGITRDNLMLRMKDDEWFDVIDTNLNSLYRLSKGVLRGMTKARWGRIISIGSVVGAMGNAGQANYAAAKAGLEGFSRALAREVGSRGITVNSVTPGFIDTDMTRELPEAQREALQTQIPLGRLGQADEIAKVVSFLASDGAAYVTGATVPVNGGMYM
modifications: Pseudomonas putida KT2440
B8: ADH4: alcohol dehydrogenase isolated from Agrobacterium tumefaciens C58, polypeptide SEQ ID NO: 76 (protein)
chain: MTGANQPWEVQEVPVPKAEPGLVLVKIHASGMCYTDVWATQGAGGDIYPQTPGHEVVGEIIEVGAGVHTRKVGDRVGTTWVQSSCGRCSYCRQNRPLTGQTAMNCDSPRTTGFATQGGHAEYIAISAEGTVLLPDGLDYTDAAPMMCAGYTTWSGLRDAEPKPGDRIAVLGIGGLGHVAVQFSKALGFETIAITHSPDKHKLATDLGADIVVADGKELLEAGGADVLLVTTNDFDTAEKAMAGVRPDGRIVLCALDFSKPFSIPSDGKPFHMMRQRVVGSTHGGQHYLAEILDLAAKGKVKPIVETFALEQATEAYERLSTGKMRFRGVFLPHGA
modifications: Agrobacterium tumefaciens C58
B9: ADH1: alcohol dehydrogenase isolated from Agrobacterium tumefaciens C58, polypeptide SEQ ID NO: 70 (protein)
chain: MFTTSAYACDDGSSPMKLATIRRRDPGPRDVEIEIEFCGVCHSDIHTARSEWPGSLYPCVPGHEIVGRVGRVGAQVTRFKTGDRVGVGCIVDSCRECASCAEGLEQYCENGMTGTYNSPDKAMGGGAHTLGGYSAHVVVDDRYVLNIPEGLDPAAAAPLLCAGITTYSPLRHWNAGPGKRVGVVGLGGLGHMAVKLANAMGATVVMITTSPGKAEDAKKLGAHEVIISRDAEQMKKATSSLDLIIDAVAADHDIDAYLALLKRDGALVQVGAPEKPLSVMAFSLIPGRKTFAGSMIGGIPETQEMLDFCAEKGIAGEIEMIDIDQINDAYERMIKSDVRYRFVIDMKSLPRQKAA
modifications: Agrobacterium tumefaciens C58

Assays:
Assay type in all cases: biochemical
[1] = NADPH dependent D-mannuronate hydrogenation assay (D-mannuronate hydrogenase); conditions: E. coli cell lysate containing each ADH; NADPH consumption at 340 nm for 30 min; FIG. 7B
Experimental: (§1) To identify D-mannuronate hydrogenase, a NADPH dependent D-mannuronate hydrogenation assay was performed. 20 μl of prepared cell lysate containing each ADH was added to 160 μl of D-mannuronate solution prepared in the above section. 20 μl of 2.5 mg/ml of NADPH solution (20 mM Tris-HCl, pH 8.0) was added to initiate the hydrogenation reaction. The consumption of NADPH was monitored an absorbance at 340 nm for 30 min using the kinetic mode of ThermoMAX 96 well plate reader (Molecular Devises). E. coli cell lysate containing alcohol dehydrogenase (ADH) 10 lacking a portion of N-terminal domain was used in a control reaction mixture.

[2] = NADH/NADPH production assay, oxidation of 4-octanol by secondary alcohol dehydrogenases; conditions: 30° C.; for oxidation of 4-octanol as measured by NADPH production: in the presence of NADP+, FIG. 30B
Experimental: […] consumption and production assays were performed using a THERMOmax microplate reader in the kinetic mode, monitoring the NADPH absorbance peak at 340 nm until the reaction reached equilibrium. […] These reaction conditions are found in Table 4 below.

[3] = NADPH dependent DEHU hydrogenation assay (DEHU hydrogenase); conditions: E. coli cell lysate containing each ADH; NADPH consumption at 340 nm for 30 min; FIG. 7A
Experimental: as §1, with “identify DEHU” for “identify D-mannuronate”, “dependent DEHU” for “dependent D-mannuronate”, “of 20-fold deluted DEHU” for “of D-mannuronate”, “hydrogenation reaction, as a preliminary study using cell Lysate of A. tumefaciens C58 have shown that DEHU hydrogenation requires NADPH as a co-factor.” for “hydrogenation reaction.”

Row | Molecule | mannuronate hydrogenase activity [1] | oxidation of 4-octanol as measured by NADPH production [2] | also measured
1 | B1 | significant mannuronate hydrogenase activity |  | 
2 | B2 |  |  | oxidation of 4-octanol as measured by NADH production ([2]; in the presence of NAD+, FIG. 30A): catalyzes the oxidation of 4-octanol
3 | B3 |  |  | DEHU hydrogenase activity [3]: significant DEHU hydrogenase activity
4 | B4 | significant mannuronate hydrogenase activity |  | 
5 | B5 |  | catalyze the oxidation of 4-octanol | 
6 | B6 |  | catalyze the oxidation of 4-octanol | 
7 | B7 |  | catalyze the oxidation of 4-octanol | 
8 | B8 | significant mannuronate hydrogenase activity |  | 
9 | B9 |  |  | DEHU hydrogenase activity [3]: significant DEHU hydrogenase activity
